Measured values from patent US20150299272A1 (UNIVERSITY OF NEWCASTLE UPON TYNE, published 2015).

Key:
[1] = biological target: the molecule itself; assay: Superdex 200 gel filtration (self-association)
[2] = biological target: Caf1-6His NT + Spacer linking peptide (Yersinia pestis); assay: co-expression in E. coli, western blot of partly heat-dissociated polymer

B1: Caf1 WT (naturally occurring Caf1 polypeptide monomer from Yersinia pestis; fraction 1 antigen polymer) (other)
chain: ADLTASTTATATLVEPARITLTYKEGAPITIMDNGNIDTELLVGTLTLGGYKTGTTSTSVNFTDAAGDPMYLTFTSQDGNNHQFTTKVIGKDSRDFDISPKVNGENLVGDDVVLATGSQDFFVRSIGSKGGKLAAGKYTDAVTVTVSNQ
[1]
  binding result: binds
[2]
  binding result: binds
